Test results: publication PMC11853027

Molecular target: LS174T cells
Test: cell-binding assay, cell-bound Hoc detected by Western blot
Settings: After 1.5 h of incubation; parent: est. 1.0; read off a plot

Q: For “Hoc protein of phage ΦPNJ-9 (wild type, recombinant) L184”, which other: Ratio of Hoc/MUC2 is on record?
A: 0.5

Q: For “Hoc protein of phage ΦPNJ-9 (wild type, recombinant) S183”, which other: Ratio of Hoc/MUC2 is on record?
A: 0.53

Q: “Hoc protein of phage ΦPNJ-9 (wild type, recombinant) T185” was tested. Which other: Ratio of Hoc/MUC2 did it give?
A: 0.47
